Results reported in paper PMC9772109 (Immunity, 2022).

Target: H1 HA (recombinant HA of Figure 4E) (Influenza A virus, H1 subtype; strain …, UniProt A0A1J0CXU0)
Assay: BLI

B1: mAb 789-203-3C12 (IgG) (antibody, V domains shown)
VH: QVQLQESGPGLVKPSEILSLTCAVSGGSFSSYCWGWIRQPPGKGLEWIGSICGSGGSNYLNPSLKSRVTLSVDTSKNQFSLILNSVTAADTAVYYCAREGITIFGVVIPRVLDSWGQGAVVTVSS
VL: DIQMTQSPSSLSASVGDTVTITCRASQSISSWLAWYQQKPGKAPNLLIYRASTLQSGVPSRFSGSGSGTDFTLTISSLQSEDFATYFCQQSTSSPFTFGPGTKLDIK
B1: binds.
